Laboratory results from the nanobody polyreactivity screen of Harvey et al. (2022).

Experiment: yeast display, Sf9 membrane polyspecificity reagent, FACS + sequencing; frameworks hold sequencing errors
Summary of the method: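 A synthetic nanobody library was expressed on Saccharomyces cerevisiae BJ5465 by galactose induction for 36–48 hours. The library was stained for 1 hour at 4 °C with 10% biotinylated, detergent-solubilized Sf9 membrane reagent and enriched with streptavidin microbeads before FACS. Low and high (top ~1%) gates were set on anti-HA fluorescence for expression and streptavidin fluorescence for reagent binding, and each polyreactivity label reflects the gate of origin.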

Sequence | polyreactivity (PSR sort gate)
QVQLVESGGGLVQAGGSLRFSCAASGSTFFGNTMGWYRQAPGKERELVAAISRRGGSTYYADSVKGRFTISRDNAKNTVYLQMNSLKPEDTAVYYCAKYYHSGGYTPGKYDYWGQGTQVTVSS | high polyreactivity
QVQLVESGGGLVQAGGSLRLSCAASGSTFVYNAMGWYRQAPGKERELVAAITVIGGRTYYADSVKGRFTISRDNAKNTVYLQMNSLKPEDTAVYYCNADATESIGYYDEYEYWGQGTQVTVSS | low polyreactivity
QVQLVESGGGLVQAGGSLRLSCAASGSTFPVNAMGWYRQAPGKERELVAAISSRGSSTYYADSVKGRFTISRDNAKNTVYLQMNSLKPEDTAVYYCAAPQRYPRFYYWGQGTQVTVSS | high polyreactivity
QVQLVESGGGLVQAGGSLRLSCAASGSIFVNYAKGWYRQAPGKERELVAAITRSGGRTYYADSVKGRFTISRDNAKNTVYLQMNSLKPEDTAVYYCNKRRYPYGWGQGTQVNVSS | high polyreactivity
QVQLVESGGGLVQAGASLRLSCAASGITFDPNAMGWYRQAPGKERELVAAISTRGGSTYYADSVKGRFTISRDNAKNTVYLQMNSLKPEETAVYYCNALRTGRWFDYWGQGTQVTVSS | high polyreactivity
QVQLVESGGGLVQAGGSLRLSCAPSGRTFRFYVMGWYRQAPGKERELVAAISRGGGSTYYADSVKGRFTISRDNAKNTVYLQMNSLKPEDTAVYYCAAKPYKTRSSYWGDYYWGQGTQVTVSS | high polyreactivity
QVQLVESGVGIVQAGGILRLSCAASGSIFFFYAMGWYRQAPAKERELVAAITSSDGDTYYADSVKGRFTISRDNAKNTVYLEMNSLKPEDTAVYYCAVRSSWYEGDYWGQGTQVTVSS | low polyreactivity
QVQLVESGGGLDQAGGSLRLSCAASGLTFYTYAMGWYRQAPGTERELVAAIRWRGGRTYYADSVKGRFTISRDNAKNTVYLQMNSLKPEDTAVYYCAADYSTLYKYDYWGQGTQVTVSS | low polyreactivity
QVQLVESGGGLVQAGGSLRLSCAASGSTFFYNAMGWYRKAPGKERELVAAITGSGTRTYYADSVKGRFTISRDNAKNTVYLQMNSLKPEDTAVYYCAKYPHPLKYRGYPSEFDYWGQGTQVTVSS | low polyreactivity
QVQHVESGGGLVQAGGSLRLSCAASGSIFSIYAMGWYRQAPGKEREFVASITVTDGSTYYADSVKGRFTISRDNAKNTVYLQMNSLKPEDTAVYYCFAVDWYGSGSSYRGSVTYWGQGTQVTVSS | low polyreactivity
VQLVESGGGLVQAGGSLRLSCAACGSTFYPYAMGWYRPAPGKERELVAAISYSGGSTYYADSVKGRFTISRDNAKNTVYLQMNSLKPEDTAVYYCAARYWYKRFVWGDYWGQGTQVTVSS | high polyreactivity
QVQLVESGGGLVQAGGSLRLSCAASGSIFFFNAMGWYRQAPGKERELVAAISESGTSTYYADSVKGRFTISRDNAKNTVFLQMNSLKPEDTAVFYCKVVFRYAYGVYYTPEFYYWGQGTQVTVSS | low polyreactivity
QVQLVESGGGLVQAGGSLRLSCAASGSTFRTNVMGWYRQAPGKEREVVAAITKRGSITYYADSVKGRFTISRDNAKNTVYFQMNTLKPEDTAVYYCAARKVAVRGYAYWGQGTQVTVSS | high polyreactivity
QVQLVESGGGLVQAGGSLRLSCAASGLIFGWYAMGWYRQAPGKERELVAGISGSGGITYYADSVKGRFTISRDNAKNTVYLQMNSLKPEDTAVYYCATAAASHKYGYWGQGTQVTVSS | low polyreactivity
QVQLVESGGGLVQAGGSLRLSCAASGSTLVGYVMGWYRQAPGKERELVAAITTVGSTYYADSVKGRFTISRDNAKNTVYLQMNSLKPEDTAVYYCNAVRAYVDLRTGHFRGDYWGQGTQVTVSS | low polyreactivity
QVQLVESGGGLVQAGGSLRLSCADSGRNFYIYAMGWYRKAPGKERELVAAISISGSTYYADSVKGRFTISRDNAKNTVFLQMNSLKPEDTAVYYCAARDPGVAVGAAFDSWGQGTQVTVSS | low polyreactivity
QVQLVESGGGLVQAGGSLRLSCAASGRIFYVYAMGWYRQAPGKEMELVATITSSGEGTYYADSVMGRFTISRDNAKNTVYLQMNSLKPEDTAVYYCARRYFVRFVHPPYYYWGQGTQVTVSS | low polyreactivity
QVQLVESGGGLVQAGGSLRLSCAASGRTFNPYAMGWYRQAPGKERELVAAIRWRGTRTYYADSVKGRFTISRDNAKNTVYLQMNSLKPEDTAVYYCNALLGYYRWRRPVDYSYGSWGQGTQVTVSS | high polyreactivity
QVQLEESGGGLVQAGGSLRLSCAASGGTFGWYAMGWYRPAPGTERELVAAITSSGGTTFYADSVKGRFTISRDTAKNTVYLQMNSLKPEDTAVYYCAKRGKRPTRYKLGKYDYWGQGTQVTVSS | high polyreactivity
QVQLVESGGGLVQAGGSLRLSCAASGFTFSRYAMGWYRQAPGTERELVAAITSRGGSTYYADSVKGRFTISRDNAKNTVYLQMNSLKPEDTAVYYCAASGRNRKDGLYEYYYWGQGTQVTVSS | high polyreactivity
QVQLVESGGGLVQAGGSLRLSCAASGSTFYTNAMGWYRQAPGKERELVAAISNAGSTYYADSVKGRFTISRDNAKNTVYLQMNSLKPEDTAVYYCAADPIGLSSLWFRYSVSDVDYWGQGTQVTVSS | low polyreactivity
QVQLVESGGGLVQAGGSLRLSCAASGRTFRPYAMGWYRPAPGKERELVAAITGGTRTYYADSVKGRFTISRDNAKNTVYLQMNSLKPEDTAVYYCAKGDFFSKHDYWGQGTQVTVSS | low polyreactivity

Sequence | polyreactivity (PSR sort gate)
QVQLVESGGGLVQAGGSLRLSCAASGFIISRNAMGWYRQAPGKERELVAAIRTRTGSTYYADSVKGRFTISRDNAKNTVYLQMNSLKPEDTAVYYCNAYPYVNGRYGSWGQGTQVTVSS | high polyreactivity
QVQLVESGGGLVQAGGSLRLTCAASGRIFSYNAMGWYRQAPGKERELVAAITGGGSTNYADSVKGRFTISRDNAKNTVFLQMNSLKPEDTAVYYCAARSWSYKYWGQGTQVTVSS | high polyreactivity
QVQLVESGGGLVQAGGSLRLSCAASGSIFRLYTMGWYRQAPGKERELVAAISQSGGRTYYADSVKGRFTISRDNAKNTVYLQMNSLNPEDTAVYYCNAVGPYRPYGGQGAPYDYWGQGTQVTVSS | high polyreactivity
QDQLVESGGGLVQAGGSLRLSCDASGSIFSPYAMGWYRQAPGKEREFVAAITYSGGRTYYADSVKGRFTISRDNPKNTVYFQMNSLKPEDTAVYYCAATYSSYDHYWFVYWGQATQVTVSS | low polyreactivity
QVQLVESGGCLVQAGGSLRFSCAASGLTFGRNAMGWYRQAPGTERELVAAISRSGGRTSYADSVKGRFTMSRDNAKNTVYLQMNSLKPEETAVYYCAARSDVYTHDYWGQGTQVTVSS | high polyreactivity
QVQLVESGGGLDQAGGSLRLSCAASGSTFVFYAMVWYIQAPGKEREFVAAITNSGSNTYYADSVKGRFTISRDNAKMTVNLQMNSLKPEDTAVYYCAARPFGRYRGRYYYWGQGTQVTVSS | high polyreactivity
QVQLVESGGGLVQAGGSLRLSCAASGRTLSVNAMGWYRQAPGKERELVAAITWGGGSTYYADSVKGRFTISRDNAKNTVYLQMNSLKPEDTAVYYCNADPGWTELEYDYWGQGTQVTVSS | low polyreactivity
QVQLVESGGGLVQAGGSLRLSCAASGYTFRTNVMGWYRPAPGKVWELVATINWRGGSTYYADSVKGRFTISRDNAKNTVYLQMNSLKPEDTAVYYCAKSYRYYRTMDYWGQGTQVTVSS | low polyreactivity
QVKLVESGGGLVQAGGSLRLSCADSGSIFWTYAIVWYRHAPGKERELVAAINSSDGTYYADSVKGRFTISRDNAKNTVYLQMNSLKPEDTAVYYCNADRDALFGYDYDYWGQGTQVTVSS | low polyreactivity
QVHLVESGGGLVQAGGRLRLSCAASGFTFYKYAMGWYRQAPGKERELVAAITWSGGRTYYADSVKGRFTISRDNAKNTVYLQMNSLKPEDTAVYYCAADLHKLARYDYWGQGTQVTVSS | high polyreactivity
HVQLVESGGGLVQAGGSLRLSCAASGSIFVPNAMGWYRQALGKERELVAAITYSGGDTYYADSVKGRVTISRDNAMNTVYLQMNSLKPEDTAVYYCAADNGRVGYDYWGQGTQVTVSS | low polyreactivity
QVQLVESGGGLVQAGGSLRLSCAASGRIFINDMGWYRQAPGKERELVAAIRSDGSTNYADSVKGRFTISRDNAKNTVYLQMNSLKPEDTAVYYCNVDGYFLFVRGYEYWGQGTQVTVSS | low polyreactivity
QVQLVESGGGLVQAGGSLRLSCADSGRIFDLNAMGWYRQAPGKERELVAAITWSGDSTYYADSVKGRFTISRDNAKNTVYLQMNSLKPEDTAVYYCAAASRTSYSWVDYEFDYWGQGTQVTVSS | low polyreactivity
QVQLQESGGGLVQAGGSLRLSCAASGNFFDADIMGWYRQAPGKERELVASITDGGSTNYADSVKGRFTISRGNTKNTVYLLMNCLKPEDTSVYYCAAIAYPDMPTYFDYNSDYFYWGQGTQVTVSS | high polyreactivity
QVQLVESGGGLVQAGGSLRLSCAASGSTFPNYPMGWNRQSPGKERELVAAITRSGRSTYYADSVKGRFTISRDNAKNTVYLQMNSLKPEDTGVYYCNAQHLARMDYWGQGTQVTVSS | high polyreactivity
QVQLVESGGGIVQAGGSLRLSCAASGSTLFGDAMGLYRQAPGKERELVAAINRRGSTNYADSVKGRFTISRDNAKNTVYLKMNCLKPEDTAVYYCAAYIYKTYRYYYWGQGTQVTVSS | high polyreactivity
QVQLVESAGGIVQEGGSLRLSCAASGGTFTNYALGWYRQAPGKERELVAAITDSGAHTYYADSVKGRFTISRDNAKNKVYLQMYCLKPEDTAVYYCNAELDLYTDFDYWGQVTQVTVSS | low polyreactivity
QVQLVESGGGLVQAGGSLRLSCDASGSTFYPNAMGWYRQPPGKERELVAAITDSVCTTNYADSVKGRFTISRDNAKNTVYLQMNSLKPEDTAVYYCAKVKYYWNGYRYYYWGQGTQVTVSS | low polyreactivity
QVQLVESGGGLVQAGGSLRLSCAASGSIFRSYAMGWYRQAPGKERELVAAISRRGGSTYYADSVKGRFTISRDNVKNTVYLQMNSLKPEDTAVYYCAADRTGPYDYWGQGTQVTVSS | high polyreactivity
QVQLVESGGGLVQAGGSLRLSSAASGNIFDYYAMGCYRQAPGKERELVASISWSGRGTYYADSVKGRFTISRDNAKNTVYVQMTSLKAEDTAVYYCAADGSTVNAPRWSDPYDYWGQGSQVTVSS | low polyreactivity
QVQLVESGGGLVQAGGSLRLSCAASGRTFVPNAMGWYRQAPGKERELVAAISWSGDSTYYADSVKGRFTISRDNAKNTVYLQMNSLKPEDTAVYYCAADPFFGVSIGGLKYHFDYWGQGTQVTVSS | low polyreactivity
